The target in experiment [1] is T1, hCD155 (Table 28) (human, UniProt P15151 21-343, limits assumed).
T1 sequence (looked up): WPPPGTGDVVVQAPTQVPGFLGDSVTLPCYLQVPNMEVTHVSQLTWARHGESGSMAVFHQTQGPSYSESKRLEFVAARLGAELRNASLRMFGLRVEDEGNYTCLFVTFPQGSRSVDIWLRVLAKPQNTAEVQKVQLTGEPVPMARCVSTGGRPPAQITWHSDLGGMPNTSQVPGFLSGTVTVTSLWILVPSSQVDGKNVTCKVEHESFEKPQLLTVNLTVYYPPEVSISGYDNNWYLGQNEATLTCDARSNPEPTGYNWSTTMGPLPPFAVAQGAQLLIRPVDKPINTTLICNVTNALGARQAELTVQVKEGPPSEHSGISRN
Briefly: SPR 25C, biotin-CD226-His captured, steady state fitting. On the procedure: To determine the binding affinity to hu-CD226 and cy-CD226 of mAb1.v7.NGS8, h10G1, hCD155 and anti-hCD226 antibody DX11 (Abcam, cat #Ab33397), SPR measurement with a BIACORE™ 8K instrument was performed. Briefly, a 1:4 dilution of Biotin CAPture Reagent (GE Healthcare) into HBS-EP buffer (0.01 M HEPES pH 7.4, 0.15 M NaCl, 3 mM EDTA, 0.005% Surfactant P20) was applied to the chip at 2 µL/min flow rate. For the kinetics measurements, 5 µg/ml of biotinylated hu-CD226 His tag (Sino biological, cat #10565-H08H) and cy-CD226 His tag (Arco biosystems, cat #DN1-052H9) was captured at 10 µL/min to achieve ~50 response units in the second flow cell (FC2). FC1 was kept as a reference. Next, 3-fold serial dilutions of IgG in HBS-P buffer (0.01 M HEPES pH 7.4, 0.15 M NaCl, 0.005% surfactant P20) from low (1.3 nM) to high (1000 nM) concentration were injected (flow rate: 30 µL/min) at 25° C. The sensorgram was recorded and subject to reference and buffer subtraction before evaluating by BIACORE® 8K Evaluation Software (version 1.1.1.7442). Association rates ($kon$) and dissociation rates ($koff$) were calculated using a simple one-to-one Langmuir binding model. The equilibrium dissociation constant (K_D) value was calculated as the ratio of $koff/kon$. […]

The target of experiment [2] is T2, hu-CD96 (soluble, isoform 2 extracellular domain) (human, UniProt P40200 22-516, biotinylated in Octet and blocking ELISA).
T2 construct: the assays name only hu-CD96; also called hCD96; biotinylated hu-CD96
T2 sequence: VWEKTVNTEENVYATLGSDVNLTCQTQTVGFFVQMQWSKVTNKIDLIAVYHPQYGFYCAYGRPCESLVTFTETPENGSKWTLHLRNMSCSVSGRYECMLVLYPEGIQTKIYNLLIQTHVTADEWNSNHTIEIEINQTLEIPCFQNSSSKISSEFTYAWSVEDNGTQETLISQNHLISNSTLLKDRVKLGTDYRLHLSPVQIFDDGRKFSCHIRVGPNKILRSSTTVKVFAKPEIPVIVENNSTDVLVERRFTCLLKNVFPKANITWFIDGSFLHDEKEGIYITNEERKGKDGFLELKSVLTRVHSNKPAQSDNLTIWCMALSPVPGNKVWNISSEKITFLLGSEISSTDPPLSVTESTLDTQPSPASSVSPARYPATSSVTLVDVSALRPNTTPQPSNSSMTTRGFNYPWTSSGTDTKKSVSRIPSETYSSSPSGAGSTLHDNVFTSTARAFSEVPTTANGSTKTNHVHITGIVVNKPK
The experiment in a line: CD155 blocking ELISA. Background: ELISA stands for enzyme-linked immunosorbent assay.

For experiment [3], the target named is T3, cy-CD96 (soluble, extracellular domain) (cynomolgus monkey, UniProt P40200 22-516 (human entry), biotinylated in Octet and blocking ELISA).
T3 construct: the assays name only cy-CD96; also called biotinylated cy-CD96
T3 chain: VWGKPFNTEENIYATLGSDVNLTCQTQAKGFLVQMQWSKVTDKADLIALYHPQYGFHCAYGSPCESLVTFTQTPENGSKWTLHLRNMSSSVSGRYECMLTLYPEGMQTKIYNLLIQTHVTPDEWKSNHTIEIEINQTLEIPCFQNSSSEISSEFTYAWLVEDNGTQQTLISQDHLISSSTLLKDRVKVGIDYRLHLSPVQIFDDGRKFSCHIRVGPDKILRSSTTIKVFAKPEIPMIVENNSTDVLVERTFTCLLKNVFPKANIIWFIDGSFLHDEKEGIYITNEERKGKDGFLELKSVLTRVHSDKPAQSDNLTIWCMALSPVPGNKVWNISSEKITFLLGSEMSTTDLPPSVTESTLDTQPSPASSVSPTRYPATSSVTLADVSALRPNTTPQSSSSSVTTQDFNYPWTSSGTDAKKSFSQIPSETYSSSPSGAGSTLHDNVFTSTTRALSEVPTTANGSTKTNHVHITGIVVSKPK
The experiment in a line: CD155 blocking ELISA.

The target of experiment [4] is T2, hu-CD96 (soluble, isoform 2 …). The experiment in a line: BLI (Octet), biotin-CD96 on SA, Fab analyte. On the technique in general: Biolayer interferometry detects binding as a change in optical thickness at a sensor tip.
The target in experiment [5] is T3, cy-CD96 (soluble, extracellular domain). Briefly: BLI (Octet), biotin-CD96 on SA, Fab analyte.
The target in experiment [6] is T4, cy-CD96 Fc (cynomolgus monkey, biotinylated in Table 16).
T4 construct: also called biotinylated cy-CD96-Fc
The experiment in a line: SPR (Biacore), Fab. (In SPR one partner is held on a chip, and binding of the other changes the refractive index at the surface.)

For experiment [7], the target named is T5, hu-CD96 Fc (human, biotinylated in Table 16).
T5 construct: also called biotinylated hu-CD96-Fc
Briefly: SPR (Biacore), Fab.

B1: hu-CD226 His tag (receptor, human, UniProt Q15762 19-247, looked up)
chain: EEVLWHTSVPFAENMSLECVYPSMGILTQVEWFKIGTQQDSIAIFSPTHGMVIRKPYAERVYFLNSTMASNNMTLFFRNASEDDVGYYSCSLYTYPQGTWQKVIQVVQSDSFEAAVPSNSHIVSEPGKNVTLTCQPQMTWPVQAVRWEKIQPRQIDLLTYCNLVHGRNFTSKFPRQIVSNCSHGRWSVIVIPDVTVSDSGLYRCYLQASAGENETFVMRLTVAEGKTDN
modifications: biotinylated
In general, Kd refers to the constant that tells how readily two partners part at equilibrium. Read a high Kd as lower affinity. As to B1, the equilibrium dissociation constant (Kd) in experiment [1] turned out to be 161 nM.

B2: mAb1.v7.NGS9 Fab (Fab, V domains shown)
VH: EVQLVQSGAEVKKPGASVKVSCKASGFTFTNNFMHWVRQAPGQGLEWIGMIHANSGITNINEKFKNRVTMTTDTSTSTAYMELRSLRSEDTAVYYCRSDGVYEGYFDYWGQGTLVTVSS
VL: DIQLTQSPSSLSASVGDRVTITCKASQNVGTAIVWYQQKPGKAPKVLIYSASTRYTGVPSRFSGSGSGTDFTLTISSLQPEDFATYYCQQYSSSPLTFGQGTKVEIK
notes: also called W33F/P52aA/T97V
The term IC50 denotes the concentration needed to halve the response being measured. Read a low IC50 as higher potency. One may read the koff as a measure of how fast the partners let go of each other. A word on the kon: it is a measure of how fast the partners come together. The low end stands for slower complex formation, the high end for faster complex formation. On to B2, for which the IC50 is 0.78 nM in experiment [2] and 0.73 nM in experiment [3]. Further, the Kd in experiment [4] stood at 0.1 nM; in experiment [5] it was 82 nM; in experiment [6] it was 16.7 nM; in experiment [7], 5.85 nM. Besides, the koff in experiment [6] was found to be 0.000414 s⁻¹; in experiment [7] it was 8.32e-05 s⁻¹. For the same molecule, the results for the kon in experiment [6] and in experiment [7] were 24800 M⁻¹ s⁻¹ and 14200 M⁻¹ s⁻¹, respectively.

B3: mAb1.v7.NGS11 Fab (Fab, V domains shown)
VH: EVQLVQSGAEVKKPGASVKVSCKASGFTFTNNFMHWVRQAPGQGLEWIGFIHANSGITNINEKFKNRVTMTTDTSTSTAYMELRSLRSEDTAVYYCRSDGVYEGYFDYWGQGTLVTVSS
VL: DIQLTQSPSSLSASVGDRVTITCKASQNVGTAIVWYQQKPGKAPKVLIYSASTRYTGVPSRFSGSGSGTDFTLTISSLQPEDFATYYCQQYSSSPLTFGQGTKVEIK
notes: also called W33F/M50F/P52aA/T97V
In the case of B3, the IC50 in experiment [2] turned out to be 0.59 nM; in experiment [3], 0.95 nM. The Kd in experiment [6] came to 19.1 nM; in experiment [7] it was 2.62 nM. Also, the off-rate (koff) in experiment [6] was 0.000215 s⁻¹; in experiment [7], 2.75e-05 s⁻¹. The figures for the kon in experiment [6] and in experiment [7] were 11200 M⁻¹ s⁻¹ and 10500 M⁻¹ s⁻¹, respectively.

B4: mAb1.v7.NGS10 Fab (Fab, V domains shown)
VH: EVQLVQSGAEVKKPGASVKVSCKASGFTFTNNFMHWVRQAPGQGLEWIGFIHANSGITNINEKFKNRVTMTTDTSTSTAYMELRSLRSEDTAVYYCRSDGIYEGYFDYWGQGTLVTVSS
VL: DIQLTQSPSSLSASVGDRVTITCKASQNVGTAIVWYQQKPGKAPKVLIYSASTRYTGVPSRFSGSGSGTDFTLTISSLQPEDFATYYCQQYSSSPLTFGQGTKVEIK
notes: Fab; also called W33F/M50F/P52aA/T97I
In the case of B4, the figures for the IC50 in experiment [2] and in experiment [3] were 0.54 nM and 0.84 nM, respectively. For the same molecule, the Kd worked out at 30 nM in experiment [6] and 2.1 nM in experiment [7]. Moreover, the figures for the koff in experiment [6] and in experiment [7] were 0.000343 s⁻¹ and 2.6e-05 s⁻¹, respectively. For the same molecule, the kon was found to be 11400 M⁻¹ s⁻¹ in experiment [6] and 12100 M⁻¹ s⁻¹ in experiment [7].

B5: cy-CD226 His tag (receptor, cynomolgus monkey)
chain: EEVLWHTSVPFAENMSLECVYPSVGILTQVEWFKIGTEKDSIAIFSPTHGMVIRKPYAERVYFLNSTMASNNMTLFFRNASEDDVGYYSCSLYTYPQGTWQKVIQVVQSDGFEAAVPPNSHIVSEPGKNITLTCQPQMTWPVQEVRWEKVQPHQIDLLTYCDLVHGRNFTSKFPRQIVSNCSHGSWSFIVVPDVTASDSGLYRCHLQASAGENETFVMRLTVAEGQTDN
modifications: biotinylated
Regarding B5, the Kd in experiment [1] came out at 67.5 nM.

For the origin of these results see patent US12365732 (23ANDME, dated 2025).
